Assay results as given in publication PMC6593408.

Key:
Experiment in all cases: EMSA
Settings in all cases: EMSA: pKa-matched buffers (ethanolamine-CAPSO pH 9.6, Tris-acetate pH 8.0, bis-Tris-ACES pH 6.7), 155 mM NaCl, 5 nM DNA, 2.5-20 or 40 uM protein, 30 min room …
[1] = biological target: T1, CopL (0079) (Staphylococcus aureus USA300 LAC) (UniProt A0A0H2XFS1)
T1 sequence: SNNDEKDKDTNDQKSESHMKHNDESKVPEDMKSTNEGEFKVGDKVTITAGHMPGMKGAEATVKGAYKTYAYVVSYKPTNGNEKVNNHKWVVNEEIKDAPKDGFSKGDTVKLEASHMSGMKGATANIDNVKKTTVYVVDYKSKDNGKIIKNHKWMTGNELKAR

[2] = biological target: T2, 0100 (Csa1A) (Staphylococcus aureus USA300 LAC) (UniProt Q2FKG1)
T2 sequence: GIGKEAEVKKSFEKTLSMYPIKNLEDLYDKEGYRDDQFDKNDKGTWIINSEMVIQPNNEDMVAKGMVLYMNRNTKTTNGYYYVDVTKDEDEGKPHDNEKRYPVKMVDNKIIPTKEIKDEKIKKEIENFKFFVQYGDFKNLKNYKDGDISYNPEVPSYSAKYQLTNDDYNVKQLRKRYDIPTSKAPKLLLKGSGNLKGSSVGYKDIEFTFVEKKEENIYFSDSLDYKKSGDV

[3] = biological target: T3, DsbA (Staphylococcus aureus USA300 LAC) (UniProt A0A0H2XFS3)
T3 sequence: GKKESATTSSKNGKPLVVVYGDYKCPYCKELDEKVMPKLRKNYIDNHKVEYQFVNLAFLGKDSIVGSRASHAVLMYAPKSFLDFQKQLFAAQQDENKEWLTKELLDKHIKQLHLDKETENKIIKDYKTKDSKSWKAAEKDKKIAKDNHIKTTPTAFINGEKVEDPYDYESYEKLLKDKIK

Measured: binding

GTTCATTATGAAGTCCCTCCAAAAATCATTTGATAATATAGTTTACAGCTATAATTGTAAACGCTATCATAAAATGTAACAATATCTTTTTGAAAATTGTAGTCATATTTATGTATAATTAATGAAAATGTTTTTCAAAATCAATAGAAATGGAGTGAGTAAGGTGTATTACATCGCAATCGATATTGGAGGCACTCAAATTAAATCGGCAGTTATTGATAAGCAATTGAATATGTTTGACTATCAACAAATATCAACG (double strand) [259-bp nanA promoter probe]
binds: all assays above
